Earlier results on one substance are cited in PMC4271846.

In the data set the target is tau (Homo sapiens) (UniProt P10636). Kind of data set: SPR. On the technique in general: Surface plasmon resonance follows binding to a sensor surface in real time, without labels.

Usually Kd stands for a measure of binding affinity in units of concentration. Consider tau (from UniProt P10636), for which the Kd is 46 µM.
